Publication PMC10530651, “Mechanisms of Regulation of the CHRDL1 Gene by the TWIST2 and ADD1/SREBP1c Transcription Factors”

Tests used:
TWIST2 Q119X [1] = target: T1, TWIST2 Q119X (Homo sapiens, UniProt Q8WVJ9 1-118); assay: EMSA; EMSA: 20 mM HEPES pH 7.9, 60 mM KCl, 1 mM MgCl2, 0.5 mM DTT, 10% glycerol, 10 µL with 1-3 µL TnT lysate; competitor at least 50x molar excess; 6% native gel, 0.5X TBE, 4 °C; binding temperature not stated; conditions: protein: ivt; tags: Myc; chain copies: 2; label: 32P as probe; blunt
T1 sequence: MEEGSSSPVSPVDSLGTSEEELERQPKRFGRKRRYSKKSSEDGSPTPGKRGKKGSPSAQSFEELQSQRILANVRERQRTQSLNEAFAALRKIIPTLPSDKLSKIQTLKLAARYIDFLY

TWIST2 Q119X [2] = target: T1, TWIST2 Q119X; assay: EMSA; homodimer; EMSA: 20 mM HEPES pH 7.9, 60 mM KCl, 1 mM MgCl2, 0.5 mM DTT, 10% glycerol, 10 µL with 1-3 µL TnT lysate; competitor at least 50x molar excess; 6% native gel, 0.5X TBE, 4 °C; binding temperature not stated; conditions: protein: ivt; tags: Myc; chain copies: 2; label: 32P as probe; blunt

B1: CH2600TWI (dsDNA)
DNA 1: TATATACACAGGCAAATGAGTGCATATAAA
DNA 2: TTTATATGCACTCATTTGCCTGTGTATATA
binding result (TWIST2 Q119X [1]): no binding

B2: CH2700EA (dsDNA)
DNA 1: TGGTGGTGGTCACATGAATATACACATGCGATAAAATT
DNA 2: AATTTTATCGCATGTGTATATTCATGTGACCACCACCA
binding result (TWIST2 Q119X [2]): no binding
